The Human Domainome abundance scans (Beltran et al. 2025)
± gives the uncertainty stated by the source.

B1: POU domain, class 4, transcription factor 1, residues 266 to 347; numbered along this chain, Q01851 (parent)
chain: RELEAFAERFKQRRIKLGVTQADVGSALANLKIPGVGSLSQSTICRFESLTLSHNNMIALKPILQAWLEEAEGAQREKMNKP

Variants of: B1
Test: abundance fitness (aPCA) (normalised: wild type 0, dead -1); higher = more abundant; growth selection in yeast, the domain comes from the species named
Settings: Homo sapiens

Variant	abundance fitness
RELEAFAERFKQRRIKLGVTQADVGSALANLKIPGVGSLSQSTICRFESLTLSMNNMIALKPILQAWLEEAEGAQREKMNKP [H54M]	0.044 ± 0.052
RELEAFAERFKQRRIKLGVTPADVGSALANLKIPGVGSLSQSTICRFESLTLSHNNMIALKPILQAWLEEAEGAQREKMNKP [Q21P]	-0.045 ± 0.065
RELEAFAERFKQMRIKLGVTQADVGSALANLKIPGVGSLSQSTICRFESLTLSHNNMIALKPILQAWLEEAEGAQREKMNKP [R13M]	-0.023 ± 0.057
RELEAFAERFKQQRIKLGVTQADVGSALANLKIPGVGSLSQSTICRFESLTLSHNNMIALKPILQAWLEEAEGAQREKMNKP [R13Q]	-0.053 ± 0.05
RELEAFAERFKQRRIKLGVTQADVGSALANLKIPGVGSLSQSTICRFESLTLSHNNMIALKPILLAWLEEAEGAQREKMNKP [Q65L]	-0.073 ± 0.026
RELEAFAERFKQRRIKLGVTQADVESALANLKIPGVGSLSQSTICRFESLTLSHNNMIALKPILQAWLEEAEGAQREKMNKP [G25E]	0.05 ± 0.054
RELEAFAERFKQRRIKLGVTQADVGSALANLKIPGVGSLSQSTICRFESLTLSHNNMIALKPILQAWLEEACGAQREKMNKP [E72C]	-0.416 ± 0.092
RELEAFAERFKQRRIKLGVTQADVGSALANLKIPGVGSLSQSTICRFESLTLSHNNMIALKPILQAWLEEAKGAQREKMNKP [E72K]	-0.518 ± 0.11
RELEAFAERFKQRRIKLGVTQADVGSALANLKIPGVGSLSQSTICRFESLTLSHKNMIALKPILQAWLEEAEGAQREKMNKP [N55K]	-0.038 ± 0.074
RELEAFAERFKQRRIKNGVTQADVGSALANLKIPGVGSLSQSTICRFESLTLSHNNMIALKPILQAWLEEAEGAQREKMNKP [L17N]	-0.455 ± 0.05
RELEAFAERFKQRRIKLGVTQADVGSALANLKIPGVGSLSQPTICRFESLTLSHNNMIALKPILQAWLEEAEGAQREKMNKP [S42P]	-0.198 ± 0.083
RELEAFAERFKQRRIKLGVTQADVGSKLANLKIPGVGSLSQSTICRFESLTLSHNNMIALKPILQAWLEEAEGAQREKMNKP [A27K]	-0.058 ± 0.062
RELEAFAERFKQRRIKLGVTQADVGSVLANLKIPGVGSLSQSTICRFESLTLSHNNMIALKPILQAWLEEAEGAQREKMNKP [A27V]	-0.16 ± 0.04
RELEAFAERFKQRRIKLGVTQADVGSPLANLKIPGVGSLSQSTICRFESLTLSHNNMIALKPILQAWLEEAEGAQREKMNKP [A27P]	-1.23 ± 0.27
RKLEAFAERFKQRRIKLGVTQADVGSALANLKIPGVGSLSQSTICRFESLTLSHNNMIALKPILQAWLEEAEGAQREKMNKP [E2K]	-0.069 ± 0.04
RELEAFAERFKQRRIKLGVTQGDVGSALANLKIPGVGSLSQSTICRFESLTLSHNNMIALKPILQAWLEEAEGAQREKMNKP [A22G]	-0.017 ± 0.056
RELEAFAERFKQRRIKLGVTQIDVGSALANLKIPGVGSLSQSTICRFESLTLSHNNMIALKPILQAWLEEAEGAQREKMNKP [A22I]	-0.218 ± 0.24
RELEAFAERFKQRRIKLGVTQADVGSALANLKIPGVGSLSQSTICRFESLTLSHNNMIALKPILQAWLEEAEGAQREKMNKG [P82G]	-0.011 ± 0.071
RELEAFAERFKQRRIKLGVTQADVGSALANLKIPGVGSLSQSTICRFESLTLSHNNMIALKPILQAWLEEAEGAQREKMNKA [P82A]	0.086 ± 0.079
RELEQFAERFKQRRIKLGVTQADVGSALANLKIPGVGSLSQSTICRFESLTLSHNNMIALKPILQAWLEEAEGAQREKMNKP [A5Q]	0.047 ± 0.062
RELEAFAERFKQRRIKLGVTQADVGSALANLKIPGVGSLSQSTICRFESLTLSHNNMIALKPILQAWLEVAEGAQREKMNKP [E70V]	-0.176 ± 0.026
IELEAFAERFKQRRIKLGVTQADVGSALANLKIPGVGSLSQSTICRFESLTLSHNNMIALKPILQAWLEEAEGAQREKMNKP [R1I]	0.039 ± 0.067
WELEAFAERFKQRRIKLGVTQADVGSALANLKIPGVGSLSQSTICRFESLTLSHNNMIALKPILQAWLEEAEGAQREKMNKP [R1W]	-0.134 ± 0.033

Variant	abundance fitness
RELEAFAERFSQRRIKLGVTQADVGSALANLKIPGVGSLSQSTICRFESLTLSHNNMIALKPILQAWLEEAEGAQREKMNKP [K11S]	-0.104 ± 0.065
RELEAFAERFYQRRIKLGVTQADVGSALANLKIPGVGSLSQSTICRFESLTLSHNNMIALKPILQAWLEEAEGAQREKMNKP [K11Y]	-0.642 ± 0.36
RELEAFAEEFKQRRIKLGVTQADVGSALANLKIPGVGSLSQSTICRFESLTLSHNNMIALKPILQAWLEEAEGAQREKMNKP [R9E]	-0.019 ± 0.064
RELEAFAERFKQRRIKLGVTQADVGSALANLKIPGVLSLSQSTICRFESLTLSHNNMIALKPILQAWLEEAEGAQREKMNKP [G37L]	-0.121 ± 0.03
RELEAFAERFKQRRIKLGVTQADVGSALANLKIPGVISLSQSTICRFESLTLSHNNMIALKPILQAWLEEAEGAQREKMNKP [G37I]	-0.116 ± 0.063
RELEAFAERFKQRRQKLGVTQADVGSALANLKIPGVGSLSQSTICRFESLTLSHNNMIALKPILQAWLEEAEGAQREKMNKP [I15Q]	-0.013 ± 0.038
RELEAFTERFKQRRIKLGVTQADVGSALANLKIPGVGSLSQSTICRFESLTLSHNNMIALKPILQAWLEEAEGAQREKMNKP [A7T]	-0.138 ± 0.033
RELEAFAERFKQRRIKLGVTQADVGSALANLKIPGVGSLSQSTICRFESLTLSHNNMIALKPIIQAWLEEAEGAQREKMNKP [L64I]	-0.339 ± 0.26
RELEAFAERFKQRRIKLGVTQADVGSALANLKIPGVGSLSQSTICRFESLTLSHNNMIALKPIGQAWLEEAEGAQREKMNKP [L64G]	-0.672 ± 0.065
RELEAFAERFKQRRIKLGVTQADVGSALANLKIPGVGSLSQSTICRFESLTLSHNNMIANKPILQAWLEEAEGAQREKMNKP [L60N]	-0.223 ± 0.26
RELEAFAERFKQRRIHLGVTQADVGSALANLKIPGVGSLSQSTICRFESLTLSHNNMIALKPILQAWLEEAEGAQREKMNKP [K16H]	-0.029 ± 0.034
RELEAFAQRFKQRRIKLGVTQADVGSALANLKIPGVGSLSQSTICRFESLTLSHNNMIALKPILQAWLEEAEGAQREKMNKP [E8Q]	-0.019 ± 0.1
RELEAFAERFKQRRIKLGVTQADVGCALANLKIPGVGSLSQSTICRFESLTLSHNNMIALKPILQAWLEEAEGAQREKMNKP [S26C]	-0.03 ± 0.064
RELEAFAERFKQRRIKLGVTQADVGSALANLKIPGVGALSQSTICRFESLTLSHNNMIALKPILQAWLEEAEGAQREKMNKP [S38A]	-0.18 ± 0.27
RELEAFAERFKQRRIKLGVTQADVGSALANLKIPGVGSLSQSTICRFESLTLSHNNMYALKPILQAWLEEAEGAQREKMNKP [I58Y]	-0.118 ± 0.23
RELEAFAERFKQRRIKLGVTQADVGSALANLKIPGVGSLSQSTICRFESLTLSHNNMIALKPILQAWLEEAEGAQREKSNKP [M79S]	-0.024 ± 0.026
RELEAFAERFKQRRIKLGVTQACVGSALANLKIPGVGSLSQSTICRFESLTLSHNNMIALKPILQAWLEEAEGAQREKMNKP [D23C]	-0.185 ± 0.098
RELEAFAERFKQRRIKLGVTQADVGSALANLKIPGVGSLSQSTICRFESLTLSHNNMIALKPILQAWLYEAEGAQREKMNKP [E69Y]	-0.171 ± 0.19
RELEAFAERFKQRRIKLGVTQADVGSALANLKIPGVGSLSQSTICRFESLTLSHNNMIALKPILQAWLLEAEGAQREKMNKP [E69L]	-0.036 ± 0.042
RELEAFAERFKQRRIKLGVTQADVGSALANLKIPGVGSLSQSTICRFESLTLSHNNMIALKPILQAWLKEAEGAQREKMNKP [E69K]	-0.036 ± 0.06
RELEAFAERFKQRRIKLGVTQADVGSALANLKIPGVGSLSQSTICRFESLTLSHNNMIALKPILQAWLWEAEGAQREKMNKP [E69W]	-0.224 ± 0.056
RELEAFAERFKQRRIKLGVTQADVGSALANLRIPGVGSLSQSTICRFESLTLSHNNMIALKPILQAWLEEAEGAQREKMNKP [K32R]	-0.058 ± 0.054
RELEAFAERFKQRRIKLGVTQADVGSALANLKIPGVGSLSQSTICRFESLTLSHNNMIALKPILQAWLEEAEGRQREKMNKP [A74R]	-0.008 ± 0.024

Variant	abundance fitness
RELEAFAERFKQRRIKLGVTQADVGSALANLKIPGVGSLSQSTICRFESLTLSHNYMIALKPILQAWLEEAEGAQREKMNKP [N56Y]	0.23 ± 0.24
RELEAFAERFKQRRIKLGVTQADVGSALANLKIPGVGSLSQSTICRFESLTLSHNLMIALKPILQAWLEEAEGAQREKMNKP [N56L]	0.058 ± 0.042
RELEAFAERFKQRRIKLGVTQADVGSALANLKIPGVGSLSQSTICRFESLTLSHNNMIALKPILQAVLEEAEGAQREKMNKP [W67V]	-0.412 ± 0.059
RELEAFAERFKQRRIKLGVTQADVGSALANLKIPGVGSLSQSTICRFESGTLSHNNMIALKPILQAWLEEAEGAQREKMNKP [L50G]	0.049 ± 0.038
RELEAFAERFKQRRIKLGVTQADVGSALANLKIPGVGSLSQSTICRFESHTLSHNNMIALKPILQAWLEEAEGAQREKMNKP [L50H]	0.044 ± 0.045
RELEAFAERFKQRRIKLGVTQADVGSALANLKIPGVGSLSQSTICRFESLTLSHNNMIALKPILQAWLEEAEGAQWEKMNKP [R76W]	-0.056 ± 0.026
RELEAFAERFKQRRIKLGVTQADVGSALANLKIPGVGSLSWSTICRFESLTLSHNNMIALKPILQAWLEEAEGAQREKMNKP [Q41W]	-0.074 ± 0.051
RELEAFAERFKQRRIKLGVTQADVGSALANLKIPGVGSLSQSTICRFESLTLSHNNMIALKPILQYWLEEAEGAQREKMNKP [A66Y]	-0.104 ± 0.048
RELEAFAERFKQRRIKLGVTQADVGSALANLKIPGVGSLSQSTICRAESLTLSHNNMIALKPILQAWLEEAEGAQREKMNKP [F47A]	-1.03 ± 0.18
RELEAFAERFKQRDIKLGVTQADVGSALANLKIPGVGSLSQSTICRFESLTLSHNNMIALKPILQAWLEEAEGAQREKMNKP [R14D]	-0.952 ± 0.18
RELEAFAERFKQRRIKLGVTQADVGSALANLKIPGVGSLSQSTIIRFESLTLSHNNMIALKPILQAWLEEAEGAQREKMNKP [C45I]	-0.001 ± 0.09
RELEAFAERFKQRRIKLGVTQADVGSALANLKIPGVGSLSQSTICRFESLTLSHNNMIALKPELQAWLEEAEGAQREKMNKP [I63E]	-0.295 ± 0.08
RELEAFAERFKQRRIKLGVTQADVGSALANLKIPTVGSLSQSTICRFESLTLSHNNMIALKPILQAWLEEAEGAQREKMNKP [G35T]	0.07 ± 0.19
RELEAFAERFKQRRIKLGVTQADVGSALANLKIPGVGSLSQSTICRFESLTLSHNNMIALKPILQAWLEEAETAQREKMNKP [G73T]	0.063 ± 0.069
RELEAFAERFKQRRIKLGVTQADVGSALANLKIPGVGSLSQSTICRFESLTLSHNNMIALKPILQAWLEEAESAQREKMNKP [G73S]	-0.027 ± 0.057
RELEAFAERFKQRRIKLGVTQADVGSALARLKIPGVGSLSQSTICRFESLTLSHNNMIALKPILQAWLEEAEGAQREKMNKP [N30R]	-0.063 ± 0.054
RELEAFAERFKQRRIKLGVTQADVGSALANLKIPGVGSLKQSTICRFESLTLSHNNMIALKPILQAWLEEAEGAQREKMNKP [S40K]	-0.079 ± 0.06
RELEAFAERFKQRRIKLGVTQADVGSALANLKIPGVGSLEQSTICRFESLTLSHNNMIALKPILQAWLEEAEGAQREKMNKP [S40E]	-0.063 ± 0.051
RELEAFAERFKQRRIKLGVTQADVGSALANLKIPGVGSLCQSTICRFESLTLSHNNMIALKPILQAWLEEAEGAQREKMNKP [S40C]	-0.017 ± 0.057
RELEAFAERFKQRRIKLAVTQADVGSALANLKIPGVGSLSQSTICRFESLTLSHNNMIALKPILQAWLEEAEGAQREKMNKP [G18A]	-0.268 ± 0.17
REMEAFAERFKQRRIKLGVTQADVGSALANLKIPGVGSLSQSTICRFESLTLSHNNMIALKPILQAWLEEAEGAQREKMNKP [L3M]	-0.029 ± 0.048
